Source: US20180030151A1 (MOGAM INSTITUTE FOR BIOMEDICAL RESEARCH, published 2018)
Residue numbers refer to the chain shown, from its start. Where two headings read alike, the source gives them in different places. Blank lines part the entries; values can stand above or below the binder they belong to.

Experiments:
Assay in all cases: cell-based or functional assay
[1] = target: T1, recombinant human TFPI (tissue factor pathway inhibitor) (human, UniProt P10646 29-304)
[2] = target: T1, recombinant human TFPI (tissue factor …); remark: listed apart in the source
[3] = target: T1, recombinant human TFPI (tissue factor …); remark: listed apart in the source
[4] = target: T1, recombinant human TFPI (tissue factor …); remark: listed apart in the source
[5] = target: T1, recombinant human TFPI (tissue factor …); remark: listed apart in the source
[6] = target: T1, recombinant human TFPI (tissue factor …); remark: listed apart in the source

FXa assay % of FXa alone, 2.5 nM Ab, 10 nM TFPI [1]: 6.3%
FXa assay % of FXa alone, 5 nM Ab, 10 nM TFPI [1]: 17.1%
FXa assay % of FXa alone, 10 nM Ab, 10 nM TFPI [1]: 50.1%
FXa assay % of FXa alone, 20 nM Ab, 10 nM TFPI [1]: 72%
FXa assay OD, 2.5 nM Ab, 10 nM TFPI [1]: 0.048
FXa assay OD, 5 nM Ab, 10 nM TFPI [1]: 0.131
FXa assay OD, 10 nM Ab, 10 nM TFPI [1]: 0.381
FXa assay OD, 20 nM Ab, 10 nM TFPI [1]: 0.548
B1: clone 1 (antibody, V domains shown)
VH: EVQLVESGGGLVKPGGSLRLSCAASGFTFSSYAMNWVRQAPGKGLEWVGTITTGGSYTYYADSVDGRFTISRDNAKNSLYLQMNSLRAEDTAVYYCARQDGNFLMDYWGQGTLVTVSS
VL: DVVMTQTPLSLPVTLGQPASISCKSSPSLLDSDGKTYLNWLQQRPGQSPKRLIYLVSKLDSGVPDRFTGSGSGTDFTLKISRVEAEDVGVYYCWQGTHFPFTFGQGTKVEIKR

FXa assay % of FXa alone, 2.5 nM Ab, 10 nM TFPI [2]: 5.1%
FXa assay % of FXa alone, 5 nM Ab, 10 nM TFPI [2]: 6.9%
FXa assay % of FXa alone, 10 nM Ab, 10 nM TFPI [2]: 29%
FXa assay % of FXa alone, 20 nM Ab, 10 nM TFPI [2]: 66.1%
FXa assay OD, 5 nM Ab, 10 nM TFPI [2]: 0.06
FXa assay OD, 10 nM Ab, 10 nM TFPI [2]: 0.252
FXa assay OD, 20 nM Ab, 10 nM TFPI [2]: 0.576
B2: clone 1224 (antibody, V domains shown)
VH: B1 VH with N35S, G49S
VL: B1 VL with P27Q, S32I

FXa assay % of FXa alone, 2.5 nM Ab, 10 nM TFPI [3]: 4.7%
FXa assay % of FXa alone, 10 nM Ab, 10 nM TFPI [3]: 32.9%
FXa assay % of FXa alone, 20 nM Ab, 10 nM TFPI [3]: 78.7%
FXa assay OD, 2.5 nM Ab, 10 nM TFPI [3]: 0.034
FXa assay OD, 10 nM Ab, 10 nM TFPI [3]: 0.236
FXa assay OD, 20 nM Ab, 10 nM TFPI [3]: 0.566
B3: clone 1021 (antibody, V domains shown)
VH: B1 VH with G49S, N102H
VL: B1 VL with P27Q, S32I

FXa assay % of FXa alone, 2.5 nM Ab, 10 nM TFPI [2]: 3.4%
FXa assay % of FXa alone, 5 nM Ab, 10 nM TFPI [2]: 3.5%
FXa assay % of FXa alone, 10 nM Ab, 10 nM TFPI [2]: 3.3%
FXa assay % of FXa alone, 20 nM Ab, 10 nM TFPI [2]: 2.5%
B4: clone 4287 (antibody, V domains shown)
VH: EVQLVESGGGLVKPGGSLRLSCAASGFTFSKYAMNWFRQAPGKGLEWVSTITTGGSYTYYADSVEGRFTISRDNAKNSLYLQMNSLRAEDTAVYYCARQHPYGNFLMDYWGQGTLVTVSS
VL: B1 VL with P27Q, S32I

FXa assay % of FXa alone, 2.5 nM Ab, 10 nM TFPI [4]: 6.2%
FXa assay % of FXa alone, 5 nM Ab, 10 nM TFPI [4]: 8.1%
FXa assay % of FXa alone, 10 nM Ab, 10 nM TFPI [4]: 16.2%
FXa assay % of FXa alone, 20 nM Ab, 10 nM TFPI [4]: 69.1%
FXa assay OD, 10 nM Ab, 10 nM TFPI [4]: 0.125
FXa assay OD, 20 nM Ab, 10 nM TFPI [4]: 0.532
B5: clone 3115 (antibody, V domains shown)
VH: B1 VH with Y57H
VL: B1 VL with P27Q, S32V

FXa assay % of FXa alone, 2.5 nM Ab, 10 nM TFPI [3]: 3.7%
FXa assay % of FXa alone, 5 nM Ab, 10 nM TFPI [3]: 4.8%
FXa assay % of FXa alone, 10 nM Ab, 10 nM TFPI [3]: 6.3%
FXa assay % of FXa alone, 20 nM Ab, 10 nM TFPI [3]: 14.2%
FXa assay OD, 20 nM Ab, 10 nM TFPI [3]: 0.102
B6: clone 3016 (antibody, V domains shown)
VH: B1 VH with G49S, Y57H, D65E
VL: B1 VL with P27Q, F99L

FXa assay % of FXa alone, 2.5 nM Ab, 10 nM TFPI [4]: 6.4%
FXa assay % of FXa alone, 5 nM Ab, 10 nM TFPI [4]: 8.4%
FXa assay % of FXa alone, 10 nM Ab, 10 nM TFPI [4]: 16.7%
FXa assay % of FXa alone, 20 nM Ab, 10 nM TFPI [4]: 80.5%
FXa assay OD, 2.5 nM Ab, 10 nM TFPI [4]: 0.0495
FXa assay OD, 10 nM Ab, 10 nM TFPI [4]: 0.129
FXa assay OD, 20 nM Ab, 10 nM TFPI [4]: 0.62
B7: clone 4141 (antibody, V domains shown)
VH: B1 VH with Y57H, D65E, N102Y
VL: B1 VL with P27Q, S32V

FXa assay % of FXa alone, 2.5 nM Ab, 10 nM TFPI [5]: 8.5%
FXa assay % of FXa alone, 5 nM Ab, 10 nM TFPI [5]: 28.3%
FXa assay % of FXa alone, 10 nM Ab, 10 nM TFPI [5]: 60%
FXa assay % of FXa alone, 20 nM Ab, 10 nM TFPI [5]: 69.2%
FXa assay OD, 2.5 nM Ab, 10 nM TFPI [5]: 0.041
FXa assay OD, 5 nM Ab, 10 nM TFPI [5]: 0.137
FXa assay OD, 10 nM Ab, 10 nM TFPI [5]: 0.29
FXa assay OD, 20 nM Ab, 10 nM TFPI [5]: 0.335
B8: clone 1104 (antibody, V domains shown)
VH: B1 VH with Y57H, D65Q
VL: B1 VL with P27Q, S32V

FXa assay % of FXa alone, 2.5 nM Ab, 10 nM TFPI [5]: 6.4%
FXa assay % of FXa alone, 5 nM Ab, 10 nM TFPI [5]: 10.3%
FXa assay % of FXa alone, 10 nM Ab, 10 nM TFPI [5]: 66.9%
FXa assay % of FXa alone, 20 nM Ab, 10 nM TFPI [5]: 73.9%
FXa assay OD, 2.5 nM Ab, 10 nM TFPI [5]: 0.031
FXa assay OD, 5 nM Ab, 10 nM TFPI [5]: 0.05
FXa assay OD, 10 nM Ab, 10 nM TFPI [5]: 0.324
FXa assay OD, 20 nM Ab, 10 nM TFPI [5]: 0.357
B9: clone 1001 (antibody, V domains shown)
VH: B1 VH with G49S
VL: B1 VL with P27Q, S32I

FXa assay % of FXa alone, 2.5 nM Ab, 10 nM TFPI [6]: 5%
FXa assay % of FXa alone, 5 nM Ab, 10 nM TFPI [6]: 6.1%
FXa assay % of FXa alone, 10 nM Ab, 10 nM TFPI [6]: 12.2%
FXa assay % of FXa alone, 20 nM Ab, 10 nM TFPI [6]: 53.1%
FXa assay OD, 2.5 nM Ab, 10 nM TFPI [6]: 0.041
FXa assay OD, 10 nM Ab, 10 nM TFPI [6]: 0.099
FXa assay OD, 20 nM Ab, 10 nM TFPI [6]: 0.431
B10: clone 4208 (antibody, V domains shown)
VH: B1 VH with P14S, N35S, D65Q
VL: B1 VL with P27Q, S32T
